# Test results published in paper doi:10.1101/2025.07.01.662521, “Ligand-induced Conformational Plasticity of the CTLH E3 Ligase Receptor GID4” (bioRxiv, 2025).
# T1: Human Glucose-induced degradation protein 4 homolog (GID4), residues 116-300, N-terminally Avi-tagged, … (human, UniProt Q8IVV7 116-300, biotin (BirA, on the AVI tag))
# T1 construct: Glucose-induced degradation protein 4 homolog (GID4), human, UniProt Q8IVV7, residues 116-300; Construct: N-terminal Strep-SUMO-3C-6xHis-AVI-tag; cleaved with HRV-3C protease, which by the printed order of the tags should leave 6xHis-AVI on the protein; also called hGID4; biotinylated GID4; source: E. coli BL21(DE3), purified (Streptactin XT, HRV-3C cleavage, BirA biotinylation, SEC); not shown: …
# T1 sequence (looked up): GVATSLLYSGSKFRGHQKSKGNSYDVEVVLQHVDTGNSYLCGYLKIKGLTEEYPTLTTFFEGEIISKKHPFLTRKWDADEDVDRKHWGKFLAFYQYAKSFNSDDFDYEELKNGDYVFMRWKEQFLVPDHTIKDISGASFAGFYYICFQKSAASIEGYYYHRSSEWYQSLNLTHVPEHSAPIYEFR
# B1: degron peptide PGLWKS (peptide)
# peptide: PGLWKS
# notes: Pro/N-degron peptide; also called endogenous degron peptide; PGLWKS degron peptide
# Molecular target: T1, Human Glucose-induced degradation …
# Test: SPR; biotinylated GID4 (116-300) captured on an SA chip (about 2500 RU), Biacore 8K; peptide flowed over; PBS pH 7.4, 0.05% P-20, 1 mM DTT, 1% DMSO
# Settings: both partners purified
binder,measurement,value
B1,Kd,2130 nM
